# Results taken from US20190071514A1, “ANTI-CD39 ANTIBODIES” (INNATE PHARMA, priority 2016, published 2019).
# Where a chain is given by its changes, count along the chain named. In names and notes the source's numbering stands.
# T1: human CD39 endogenously expressed on Ramos human lymphoma cells (human, UniProt P49961 1-510)
# T1 sequence: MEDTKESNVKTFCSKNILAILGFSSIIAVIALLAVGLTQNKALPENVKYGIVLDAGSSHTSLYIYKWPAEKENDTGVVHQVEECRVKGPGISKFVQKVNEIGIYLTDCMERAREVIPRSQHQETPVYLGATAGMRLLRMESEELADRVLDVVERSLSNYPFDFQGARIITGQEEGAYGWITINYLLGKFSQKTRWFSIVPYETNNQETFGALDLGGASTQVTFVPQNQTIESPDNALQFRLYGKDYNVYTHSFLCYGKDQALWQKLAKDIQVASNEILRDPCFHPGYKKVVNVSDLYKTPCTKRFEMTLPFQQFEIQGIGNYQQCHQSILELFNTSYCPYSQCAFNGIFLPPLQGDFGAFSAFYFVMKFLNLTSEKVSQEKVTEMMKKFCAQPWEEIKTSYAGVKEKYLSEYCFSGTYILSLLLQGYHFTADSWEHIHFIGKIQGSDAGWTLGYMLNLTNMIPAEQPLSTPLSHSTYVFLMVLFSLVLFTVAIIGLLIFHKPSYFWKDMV
# T2: Human CD39-L2 (human, UniProt O75354 61-484, limits assumed)
# T2 construct: Recombinant protein coated on ELISA plates; also called NTPDase6; ENTPD6
# T2 sequence: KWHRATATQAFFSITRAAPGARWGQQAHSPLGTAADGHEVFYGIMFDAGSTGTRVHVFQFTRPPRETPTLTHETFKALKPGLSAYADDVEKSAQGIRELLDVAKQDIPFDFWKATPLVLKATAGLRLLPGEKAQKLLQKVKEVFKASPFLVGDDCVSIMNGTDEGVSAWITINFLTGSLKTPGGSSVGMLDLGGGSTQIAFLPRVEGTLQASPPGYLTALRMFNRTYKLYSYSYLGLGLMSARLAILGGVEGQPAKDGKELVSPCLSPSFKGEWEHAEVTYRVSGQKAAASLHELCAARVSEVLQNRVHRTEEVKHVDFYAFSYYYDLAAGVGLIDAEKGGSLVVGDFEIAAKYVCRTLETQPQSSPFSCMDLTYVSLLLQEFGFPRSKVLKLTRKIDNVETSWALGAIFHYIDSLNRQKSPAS
# T3: Human CD39-L4 (human, UniProt O75356 25-428)
# T3 construct: Recombinant protein coated on ELISA plates; also called NTPDase5; ENTPD5
# T3 sequence: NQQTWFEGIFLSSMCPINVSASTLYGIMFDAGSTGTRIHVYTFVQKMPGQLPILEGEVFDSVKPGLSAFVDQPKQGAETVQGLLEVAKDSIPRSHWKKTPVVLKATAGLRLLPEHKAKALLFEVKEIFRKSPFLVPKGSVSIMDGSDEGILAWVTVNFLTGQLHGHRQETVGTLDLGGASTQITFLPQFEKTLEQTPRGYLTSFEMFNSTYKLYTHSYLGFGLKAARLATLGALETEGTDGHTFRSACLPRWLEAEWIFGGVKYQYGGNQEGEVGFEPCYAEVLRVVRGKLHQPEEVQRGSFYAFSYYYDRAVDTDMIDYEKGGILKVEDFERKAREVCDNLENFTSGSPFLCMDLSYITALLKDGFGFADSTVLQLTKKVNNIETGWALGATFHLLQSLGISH
# T4: Human CD39-L3 (human, UniProt O75355 44-485, limits assumed)
# T4 construct: Recombinant protein coated on ELISA plates; also called NTPDase3; ENTPD3
# T4 sequence: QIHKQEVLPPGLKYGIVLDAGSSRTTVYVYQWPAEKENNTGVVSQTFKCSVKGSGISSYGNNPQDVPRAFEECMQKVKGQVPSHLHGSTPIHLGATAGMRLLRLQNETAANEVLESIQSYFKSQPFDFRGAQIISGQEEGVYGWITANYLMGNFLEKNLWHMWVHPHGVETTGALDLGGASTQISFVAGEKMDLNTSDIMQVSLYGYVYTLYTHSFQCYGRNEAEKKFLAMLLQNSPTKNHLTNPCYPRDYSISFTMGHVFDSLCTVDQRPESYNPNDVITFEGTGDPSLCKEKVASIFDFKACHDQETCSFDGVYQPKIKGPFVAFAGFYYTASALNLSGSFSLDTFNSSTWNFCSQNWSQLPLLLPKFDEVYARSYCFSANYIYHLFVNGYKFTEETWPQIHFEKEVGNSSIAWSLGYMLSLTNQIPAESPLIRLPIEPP
# B1: L234F/L235E/P331S: mAb2 variable regions as human IgG1 with L234F/L235E/P331S; heavy chain SEQ ID NO: 26, light chain SEQ ID NO: 9 (antibody)
# heavy: QVQLVQSGSELKKPGASVKVSCKASGYTFTHYGMNWVRQAPGQGLKWMGWINTYTGEPTYADDFKGRFVFSLDTSVSTAYLQISSLKAEDTAVYYCARRRYEGNYVFYYFDYWGQGTTVTVSSASTKGPSVFPLAPSSKSTSGGTAALGCLVKDYFPEPVTVSWNSGALTSGVHTFPAVLQSSGLYSLSSVVTVPSSSLGTQTYICNVNHKPSNTKVDKRVEPKSCDKTHTCPPCPAPEFEGGPSVFLFPPKPKDTLMISRTPEVTCVVVDVSHEDPEVKFNWYVDGVEVHNAKTKPREEQYNSTYRVVSVLTVLHQDWLNGKEYKCKVSNKALPASIEKTISKAKGQPREPQVYTLPPSREEMTKNQVSLTCLVKGFYPSDIAVEWESNGQPENNYKTTPPVLDSDGSFFLYSKLTVDKSRWQQGNVFSCSVMHEALHNHYTQKSLSLSPGK
# VL: DIQMTQSPSSLSASVGDRVTITCRASENIYSYFSWYQQKPGKAPKLLIYTAKTLAEGVPSRFSGSGSGTDFTLTISSLQPEDFATYYCQHHYVTPYTFGGGTKVEIK
# modifications: Chimeric
# B2: L234A/L235E/P331S: mAb2 variable regions as human IgG1 with L234A/L235E/P331S; heavy chain SEQ ID NO: 27, light chain SEQ ID NO: 9 (antibody)
# heavy: B1 heavy with F240A
# VL: B1 VL
# modifications: Chimeric
# B3: L234A/L235E/G237A/A330S/P331S: mAb2 variable regions as human IgG1 with L234A/L235E/G237A/A330S/P331S; heavy chain SEQ ID NO: 28, light chain SEQ ID NO: 9 (antibody)
# heavy: B1 heavy with F240A, G243A, A336S
# VL: B1 VL
# modifications: Chimeric
# B4: L234A/L235E/G237A/P331S: mAb2 variable regions as human IgG1 with L234A/L235E/G237A/P331S; heavy chain SEQ ID NO: 29, light chain SEQ ID NO: 9 (antibody)
# heavy: B1 heavy with F240A, G243A
# VL: B1 VL
# modifications: Chimeric
# B5: mAb3 (antibody, human IgG1, V domains shown)
# VH: QVQLVQSGSELKKPGASVKVSCKASGYTFTHYGMNWVRQAPGKGLKWMGWINTYTGEPTYADDFKGRFVFSLDTSVSTAYLQISSLKAEDTAVYYCARRRYEGNYVFYYFDYWGQGTTVTVSS
# VL: B1 VL
# notes: Produced as Fc silent recombinant human IgG1 with heavy chain N297Q (Kabat EU numbering) and huCk constant domain; also called anti-CD39 antibody mAb3
# B6: mAb1 (antibody, human IgG1, V domains shown)
# VH: B5 VH with K43Q, K46E
# VL: B1 VL
# notes: Produced as Fc silent recombinant human IgG1 with heavy chain N297Q (Kabat EU numbering) and huCk constant domain; also called anti-CD39 antibody mAb1
# B7: mAb2 (antibody, human IgG1, V domains shown)
# VH: B5 VH with K43Q
# VL: B1 VL
# notes: Produced as Fc silent recombinant human IgG1 with heavy chain N297Q (Kabat EU numbering) and huCk constant domain; also called anti-CD39 antibody mAb2
# B8: mAb4 (antibody, human IgG1, V domains shown)
# VH: B5 VH with V2I, T74A
# VL: B1 VL
# notes: Produced as Fc silent recombinant human IgG1 with heavy chain N297Q (Kabat EU numbering) and huCk constant domain; also called anti-CD39 antibody mAb4
# B9: mAb5 (antibody, human IgG1, V domains shown)
# VH: B5 VH with K43Q
# VL: B1 VL with I48V
# notes: Produced as Fc silent recombinant human IgG1 with heavy chain N297Q (Kabat EU numbering) and huCk constant domain; also called anti-CD39 antibody mAb5
# B10: mAb6 (antibody, human IgG1, V domains shown)
# VH: B5 VH
# VL: B1 VL with I48V
# notes: Produced as Fc silent recombinant human IgG1 with heavy chain N297Q (Kabat EU numbering) and huCk constant domain; also called anti-CD39 antibody mAb6
# System: not listed separately
# Assay: Thermal shift stability assay (TSSA), aggregation temperature
# Assay type: physicochemical
# Design: unit not given here
# Conditions: mAb2 VH/Vk, human IgG1 Fc mutation formats; temperature of aggregation
# Experimental: The resulting antibodies were tested for stability in the following reference formulation at a concentration of approximatively 7 mg/mL: pH 6.0; histidine buffer (10 mM); sucrose (200 mM); NaCl (50 mM); Polysorbate 80 (PS80) (0.2 g/L). […] So for this study the concentration is set at 0.2 g/L. The stability of the formulations was monitored in two storage conditions (at +5° C.±3° C. and at +40±3° C. For each study, 3 times point were performed: TO, T15D (15 days) and T1M (1 month). A freeze thaw (F/T) and a thermal shift stability assay (TSSA) were conducted for the format comparison. To perform F/T cycles, the samples were frozen at least 2 hours at −20° C. and thawed at least 1 hour at room temperature, the F/T cycle is repeated three times and samples are tested 24 h after the last Freeze/Thaw cycle. At each time point, the following tests were performed: • Particulate Matter (MFI) • Visual Inspection (Appearance) • Impurities (SE-HPLC) • Turbidity (400 nm) • Protein Concentration (280 nm) (performed with Nanodrop, Thermo Fisher Scientific Inc.)
# These aromatic residues confer a relatively high predicted hydrophobicity to the antibody. However, the aromatic residues in these antibodies are believed to be important for antibody function and can probably not be replaced by a non-aromatic residue without a reduction or loss of activity. […] Aggregation temperature is correlated with the intrinsic stability. The higher the TAgg, the higher the stability of the protein. […] The stability of each of the Fc domain of human IgG1 isotype comprises an amino acid substitution at Kabat residue(s) 234, 235, 237, 330 and/or 331 (L234A/L235E/P331S substitutions, L234F/L235E/P331S substitutions, L234A/L235E/G237A/P331S substitutions, and L234A/L235E/G237A/A330S/P331S substitutions) improved the antibody, as shown in the table below. Such mutations can therefore enhance the pharmacological properties and/or activity of the antibody.
Molecule,Tagg run1,Tagg run2,Tagg run3
B1,67.65,67.87,68.34
B2,66.50,66.91,67.77
B3,66.35,67.58,67.07
B4,66.08,66.55,66.29

# Same assay, conditions: mean of run1-run3
row,Molecule,Tagg Mean
1,B1,68.0
2,B2,67.1
3,B3,67.0
4,B4,66.3

# Molecular target: T1, human CD39 endogenously expressed on …
# Assay: cell-based or functional assay
# Conditions: not given
row,Molecule,"inhibition of CD39 enzymatic activity (AMP generated by Ramos cells, Maldi TOF) [%]"
1,B5,≥ 90
2,B6,≥ 90
3,B7,≥ 90
4,B8,≥ 90
5,B9,≥ 90
6,B10,≥ 90

# Molecular target: T2, Human CD39-L2
# Assay: ELISA, recombinant isoform coated, dose range of antibody
# Conditions: not given
# Experimental: (§1) Antibodies were tested for binding to recombinant human CD39 isoforms (Rec-huCD39 isoforms). The CD39 isoforms having amino acid sequences shown in the table below were coated in 96-well plate in PBS 1× at 500 ng/ml or 1 μg/ml at 4° C. overnight. Wells were washed in TBS Tween 20, and further saturated 2H at RT in TBS Blocking buffer (Thermo Fisher Scientific Inc.). Dose range concentration of primary antibody was incubated in TBS blocking buffer for 2 h at RT. Wells were washed in TBS Tween 20. […] Optical density was measured on Enspire at OD=450.
row,Molecule,binding result
1,B5,no binding
2,B6,no binding
3,B7,no binding
4,B8,no binding
5,B9,no binding
6,B10,no binding

# Molecular target: T3, Human CD39-L4
# Assay: as above
# Conditions: not given
# Experimental: as §1
row,Molecule,binding result
1,B5,no binding
2,B6,no binding
3,B7,no binding
4,B8,no binding
5,B9,no binding
6,B10,no binding

# Molecular target: T4, Human CD39-L3
# Assay: as above
# Conditions: not given
# Experimental: as §1
row,Molecule,binding result
1,B5,no binding
2,B6,no binding
3,B7,no binding
4,B8,no binding
5,B9,no binding
6,B10,no binding
